This note sets out measurements from patent publication US20220401482A1, “GENERATION OF CD38 KNOCK-OUT PRIMARY AND EXPANDED HUMAN NK CELLS” (RESEARCH INSTITUTE AT NATIONWIDE CHILDREN'S HOSPITAL, priority 2019, published 2022).

For this assay, the target named is CD38 (cluster of differentiation 38) on human NK cells and multiple myeloma cells (human) (UniProt P28907). The experiment in a line: cell-based or functional assay.

The substance daratumumab (antibody) returned a sensitivity to daratumumab-mediated fratricide, unmodified control (CD38-expressing) NK cells of 77%.
